Article PMC10588359, “14‐3‐3 protein inhibits CaMKK1 by blocking the kinase active site with its last two C‐terminal helices” (Protein Science : A Publication of the Protein Society, 2023)

B1: Human 14‐3‐3γ (residues 1–235 lacking the C‐terminal 12‐residues‐long flexible tail) (domain or fragment, UniProt P61981 1-235, looked up)
chain: MVDREQLVQKARLAEQAERYDDMAAAMKNVTELNEPLSNEERNLLSVAYKNVVGARRSSWRVISSIEQKTSADGNEKKIEMVRAYREKIEKELEAVCQDVLSLLDNYLIKNCSETQYESKVFYLKMKGDYYRYLAEVATGEKRATVVESSEKAYSEAHEISKEHMQPTHPIRLGLALNYSVFYYEIQNAPEQACHLAKTAFDDAIAELDTLNEDSYKDSTLIMQLLRDNLTLWTS
notes: human 14-3-3γ, residues 1-235, lacking the C-terminal 12 residues; Homodimer; also called 14-3-3γ dimer; source: expressed and purified as described previously (Obsilova et al., 2004)
B2: pCaMKK2: CaMKK2_(93–517) D330A phosphorylated by PKA at all four sites (domain or fragment, human, UniProt Q96RR4 93-517, looked up)
chain: HLSGRKLSLQERSQGGLAAGGSLDMNGRCICPSLPYSPVSSPQSSPRLPRRPTVESHHVSITGMQDCVQLNQYTLKDEIGKGSYGVVKLAYNENDNTYYAMKVLSKKKLIRQAGFPRRPPPRGTRPAPGGCIQPRGPIEQVYQEIAILKKLDHPNVVKLVEVLDDPNEDHLYMVFELVNQGPVMEVPTLKPLSEDQARFYFQDLIKGIEYLHYQKIIHRDIKPSNLLVGEDGHIKIAAFGVSNEFKGSDALLSNTVGTPAFMAPESLSETRKIFSGKALDVWAMGVTLYCFVFGQCPFMDERIMCLHSKIKSQALEFPDQPDIAEDLKDLITRMLDKNPESRIVVPEIKLHPWVTRHGAEPLPSEDENCTLVEVTEEEVENSVKHIPSLATVILVKTMIRKRSFGNPFEGSRREERSLSAPGNLL
modifications: phosphoserine at 100, phosphothreonine at 145, phosphoserine at 495, phosphoserine at 511 (PKA; stoichiometric by LC-MS)
notes: Same construct as m3 after PKA phosphorylation; also called phosphorylated CaMKK2; source: E. coli BL21 (DE3), purified, phosphorylated by PKA in vitro, SEC
B3: CaMKK2_(93–517) D330A, unphosphorylated (domain or fragment)
chain: B2 chain
notes: also called Ca^2+/CaM-dependent protein kinase kinase 2; Not-P CaMKK2; source: E. coli BL21 (DE3), purified
B4: CaMKK1(67-480) D293A, unphosphorylated (domain or fragment)
chain: SLSARKLSLQERPAGSYLEAQAGPYATGPASHISPRAWRRPTIESHHVAISDAEDCVQLNQYKLQSEIGKGAYGVVRLAYNESEDRHYAMKVLSKKKLLKQYGFPRRPPPRGSQAAQGGPAKQLLPLERVYQEIAILKKLDHVNVVKLIEVLDDPAEDNLYLVFDLLRKGPVMEVPCDKPFSEEQARLYLRDVILGLEYLHCQKIVHRDIKPSNLLLGDDGHVKIAAFGVSNQFEGNDAQLSSTAGTPAFMAPEAISDSGQSFSGKALDVWATGVTLYCFVYGKCPFIDDFILALHRKIKNEPVVFPEEPEISEELKDLILKMLDKNPETRIGVPDIKLHPWVTKNGEEPLPSEEEHCSVVEVTEEEVKNSVRLIPSWTTVILVKSMLRKRSFGNPFEPQARREERSMSAPGNL
notes: source: E. coli BL21 (DE3), purified
B5: pCaMKK1: CaMKK1_(67–480) D293A phosphorylated by PKA at all four sites (domain or fragment, human, UniProt Q8N5S9 67-480, looked up)
chain: B4 chain
modifications: phosphoserine at 74, phosphothreonine at 108, phosphoserine at 458, phosphoserine at 475 (PKA; stoichiometric by LC-MS)
notes: Same construct as m1 after PKA phosphorylation; also called phosphorylated CaMKK1; source: E. coli BL21 (DE3), purified, phosphorylated by PKA in vitro, SEC
B6: pCaMKK1: CaMKK1(67-480) D293A phosphorylated by PKA at four sites (domain or fragment)
chain: B4 chain
modifications: phosphoserine at 74, phosphothreonine at 108, phosphoserine at 458, phosphoserine at 475
notes: also called 4xPhosphorylated CaMKK1; source: E. coli BL21 (DE3), purified; phosphorylated with PKA, then SEC
B7: CaMKK1_(67–480) D293A, unphosphorylated (domain or fragment)
chain: B4 chain
notes: Cloned into pRSFDuet-1; purification as in Psenakova et al., 2018; also called Ca^2+/CaM-dependent protein kinase kinase 1; Not-P CaMKK1; source: E. coli BL21 (DE3), purified

Legend:
[1] = molecular target: the molecule itself; experiment: SEC-SAXS; in-line SEC-SAXS on Superdex 200 Increase 5/150 GL; complexes mixed at 1:2 molar ratio (pCaMKK:14-3-3γ); 50 mM Tris–HCl pH 7.5, 150 mM NaCl, 1 mM TCEP, 3% glycerol
[2] = molecular target: B5; experiment: AUC; sedimentation velocity of mixtures of 0.06–6 μM pCaMKK1 or pCaMKK2 with 1.2 μM 14-3-3γ; direct modeling with the Lamm equation, Langmuir binding model, one pCaMKK on a 14-3-3γ homodimer; apparent KD; 50 mM Tris–HCl pH 7.5, 150 mM NaCl, 1 mM TCEP; 20°C; details: both partners purified
[3] = molecular target: B2; experiment: as above; details: both partners purified
[4] = molecular target: T1, Dansyl‐labeled rat calmodulin (DANS‐CaM), Ca^2+-bound (rat, UniProt P0DP29 1-149, dansyl label (dansyl chloride; site not stated)); experiment: fluorescence polarisation; 2 μM DANS-CaM titrated by 30 μM CaMKK proteins and their binary dilution series, with and without 60 μM 14-3-3γ; 10 mM HEPES–NaOH pH 7.4, 150 mM NaCl, 1 mM CaCl2, 0.1% Tween 20, 0.1% BSA; one-site-binding model; details: both partners purified
T1 construct: rat calmodulin, labeled with dansyl chloride; Assays in 1 mM CaCl2; also called dansyl-Ca^2+/CaM; DANS-labeled CaM; source: prepared as described previously (Holakovska et al., 2011), labeled by dansyl chloride, SEC

[5] = molecular target: B1; experiment: AUC; sedimentation velocity of mixtures of 0.06–6 μM pCaMKK1 or pCaMKK2 with 1.2 μM 14-3-3γ; direct modeling with the Lamm equation, Langmuir binding model, one pCaMKK on a 14-3-3γ homodimer; apparent KD; 50 mM Tris–HCl pH 7.5, 150 mM NaCl, 1 mM TCEP; 20°C; details: both partners purified
[6] = molecular target: T2, Rat calmodulin, Ca^2+-bound (Ca^2+/CaM) (rat, UniProt P0DP29 1-149); experiment: AUC; sedimentation velocity of CaMKK1 or CaMKK2 with Ca^2+/CaM (1:1 molar ratio); 50 mM Tris–HCl pH 7.5, 150 mM NaCl, 1 mM TCEP, 1 mM CaCl2; 20°C; details: both partners purified
T2 construct: rat calmodulin; Unlabelled CaM, used with 1 mM CaCl2 in the ultracentrifuge; source: prepared as described previously (Holakovska et al., 2011)

[7] = molecular target: T3, dansyl-labeled calmodulin (DANS-CaM), Ca2+-bound (rat, UniProt P0DP29 1-149, dansyl label (dansyl chloride; site not stated)); experiment: fluorescence polarisation; 2 μM DANS-CaM titrated with CaMKK (30 μM and binary dilution series), 1 h incubation; 10 mM HEPES-NaOH pH 7.4, 150 mM NaCl, 1 mM CaCl2, 0.1% Tween 20, 0.1% BSA; one-site-binding model; details: both partners purified
T3 construct: rat calmodulin (CaM); The assay buffer held 1 mM CaCl2 (Ca2+/CaM); also called dansyl-Ca2+/CaM; source: prepared as described previously (Holakovska et al., 2011); labeled with dansyl chloride, SEC

[8] = molecular target: T3, dansyl-labeled calmodulin (DANS-CaM), …; experiment: fluorescence polarisation; as a1 but with 60 μM 14-3-3γ present: 2 μM DANS-CaM titrated with CaMKK (30 μM and binary dilution series), 1 h incubation; 10 mM HEPES-NaOH pH 7.4, 150 mM NaCl, 1 mM CaCl2, 0.1% Tween 20, 0.1% BSA; one-site-binding model; details: both partners purified

Binder: B1
stoichiometry N [1]: 2 | Kd [2]: 21 ± 3 nM | Kd [3]: 60 ± 15 nM

Binder: B2
binding result [4]: binds | stoichiometry N [5]: 2 14-3-3γ protomers per pCaMKK

Binder: B3
stoichiometry N [6]: 1

Binder: B4
Kd [7]: 600 ± 110 nM | Kd [8]: 630 ± 70 nM

Binder: B5
stoichiometry N [5]: 2 14-3-3γ protomers per pCaMKK

Binder: B6
Kd [7]: 2160 ± 300 nM

Binder: B7
stoichiometry N [6]: 1
